Target: the molecule itself
Assay: cryo-EM structure; single-particle cryo-EM of the detergent-solubilised, amphipol-stabilised ~1-MDa XcpQ multimer flash frozen on vitreous ice; Titan Krios, Gatan K2 Summit; 18,000+ particles; 2D class averages and 3D reconstruction under C15 symmetry, 3.6 Å

B1: XcpQ secretin of the Pseudomonas aeruginosa PAO1 type 2 secretion system (natural protein)
chain: ENSGGNAFVPAGNQQEAHWTINLKDADIREFIDQISEITGETFVVDPRVKGQVSVVSKAQLSLSEVYQLFLSVMSTHGFTVVAQGDQARIVPNAEAKTEAGGGQSAPDRLETRVIQVQQSPVSELIPLIRPLVPQYGHLAAVPSANALIISDRSANIARIEDVIRQLDQKGSHDYSVINLRYGWVMDAAEVLNNAMSRGQAKGAAGAQVIADARTNRLIILGPPQARAKLVQLAQSLDTPTARSANTRVIRLRHNDAKTLAETLGQISEGMKNNGGQGGEQTGGGRPSNILIRADESTNALVLLADPDTVNALEDIVRQLDVPRAQVLVEAAIVEISGDIQDAVGVQWAINKGGMGGTKTNFANTGLSIGTLLQSLESNKAPESIPDGAIVGIGSSSFGALVTALSANTKSNLLSTPSLLTLDNQKAEILVGQNVPFQTGSYTTNSEGSSNPFTTVERKDIGVSLKVTPHINDGAALRLEIEQEISALLPNAQQRNNTDLITSKRSIKSTILAENGQVIVIGGLIQDDVSQAESKVPLLGDIPLLGRLFRSTKDTHTKRNLMVFLRPTVVRDSAGLAALSGKKYSDIRVIDGTRGPEGRPSILPTNANQLFDGQAVDLRELMTE
notes: XcpQ, the secretin of the ancestral T2SS of Pseudomonas aeruginosa PAO1; four N domains (N0-N3), secretin domain (Pfam PF00263), S domain; numbers count on: the mature protein; N0 domains not seen and N1 domains poorly resolved in the map, though part of the purified protein; also called XcpQ secretin complex; XcpQ multimer; copies: 15
  stoichiometry N: 15

From article PMC5646249, “Structural Basis of Type 2 Secretion System Engagement between the Inner and Outer Bacterial Membranes” (mBio, 2017)
